# Data as given in paper PMC5606850, “Acidic C-terminal domains autoregulate the RNA chaperone Hfq” (eLife, 2017).
# *: point of attachment. FITC = O=C1OC2(c3ccc(O)cc3Oc3cc(O)ccc32)c2ccc(NC(=S)*)cc21; Ahx = NCCCCCC(=O)O
# B1: D16-FAM·R16 (dsRNA)
# RNA 1: CGAAUUUUUUAAGUGC
# RNA 2: GCACUUAAAAAAUUCG
# B2: ChiX·chiP sRNA-mRNA pair (mixed)
# RNA 1: GGGACACCGUCGCUUAAAGUGACGGCAUAAUAAUAAAAAAAUGAAAUUCCUCUUUGACGGGCCAAUAGCGAUAUUGGCCAUUUUUUU
# RNA 2: GUAGUCAGCGAGACUUUUCUCAACGCUACUUUUUUAAUUUUUAUUUUUUCGCUGUUCACCUUUGGUGCAGCAAUUUAUACGUCAAAGAGGAUUAACCCAUGCGUACGUUUAGUGGC
# B3: Bacillus subtilis Hfq: Hfq of Bacillus subtilis (protein, UniProt O31796 1-73, looked up)
# RNA-binding protein Hfq: MKPINIQDQFLNQIRKENTYVTVFLLNGFQLRGQVKGFDNFTVLLESEGKQQLIYKHAISTFAPQKNVQLELE
# B4: CTD-FITC (fluorescently-labeled E. coli Hfq CTD peptide) (peptide)
# peptide: {FITC-Ahx}-NNAGGGTSSNYHHGSSAQNTSAQQDSEETE-OH
# notes: Hfq, E. coli, C-terminal domain peptide; lacks residues 65-72 of the CTD region; also called CTD-FITC peptide
# Key:
# Hfq102 (wild-type Hfq) [1] = biological target: T1, Hfq102 (wild-type Hfq) (Escherichia coli, UniProt P0A6X3 1-102); experiment: fluorescence anisotropy; Hill 1.2; Anisotropy: 10 mM Tris-HCl pH 7.5, 50 mM NaCl, 50 mM KCl, 30 C; CTD-FITC competition: 50 mM Tris-HCl pH 7.5, 30 C; pUC19 EMSA: 40 mM Tris-HCl pH 7.5, 0.14 mM EDTA, 35 mM NH4Cl, 3.7% glycerol, 25 C (competition legend 30 C); conditions: protein: recombinant; tags: untagged; chain copies: 6; label: 5' FAM on strand 1; blunt
# [2] = biological target: T2, Hfq65 (Hfq core, CTD deleted) (Escherichia coli, UniProt P0A6X3 1-65); experiment: competition; displaces CTD-FITC peptide; stronger than length trend; Anisotropy: 10 mM Tris-HCl pH 7.5, 50 mM NaCl, 50 mM KCl, 30 C; CTD-FITC competition: 50 mM Tris-HCl pH 7.5, 30 C; pUC19 EMSA: 40 mM Tris-HCl pH 7.5, 0.14 mM EDTA, 35 mM NH4Cl, 3.7% glycerol, 25 C (competition legend 30 C); conditions: protein: recombinant; tags: untagged; chain copies: 6; minRCRB-like hairpin at 5' end
# [3] = biological target: T2, Hfq65 (Hfq core, CTD deleted); experiment: EMSA; 33.3 nM hexamer, 10 C; most stable ternary complex; Anisotropy: 10 mM Tris-HCl pH 7.5, 50 mM NaCl, 50 mM KCl, 30 C; CTD-FITC competition: 50 mM Tris-HCl pH 7.5, 30 C; pUC19 EMSA: 40 mM Tris-HCl pH 7.5, 0.14 mM EDTA, 35 mM NH4Cl, 3.7% glycerol, 25 C (competition legend 30 C); conditions: protein: recombinant; tags: untagged; chain copies: 6; label: 32P on ChiX; partial RNA-RNA duplex
# Hfq102 (wild-type Hfq) [4] = biological target: T1, Hfq102 (wild-type Hfq); experiment: EMSA; 33.3 nM hexamer, 10 C; less ternary complex than Hfq65; Anisotropy: 10 mM Tris-HCl pH 7.5, 50 mM NaCl, 50 mM KCl, 30 C; CTD-FITC competition: 50 mM Tris-HCl pH 7.5, 30 C; pUC19 EMSA: 40 mM Tris-HCl pH 7.5, 0.14 mM EDTA, 35 mM NH4Cl, 3.7% glycerol, 25 C (competition legend 30 C); conditions: protein: recombinant; tags: untagged; chain copies: 6; label: 32P on ChiX; partial RNA-RNA duplex
# Hfq102 (wild-type Hfq) [5] = biological target: T1, Hfq102 (wild-type Hfq); experiment: fluorescence anisotropy; Hill 1.4; asterisked value, footnote not in material (possibly earlier work); Anisotropy: 10 mM Tris-HCl pH 7.5, 50 mM NaCl, 50 mM KCl, 30 C; CTD-FITC competition: 50 mM Tris-HCl pH 7.5, 30 C; pUC19 EMSA: 40 mM Tris-HCl pH 7.5, 0.14 mM EDTA, 35 mM NH4Cl, 3.7% glycerol, 25 C (competition legend 30 C); conditions: protein: recombinant; tags: untagged; chain copies: 6; label: Cy3; hairpin with 5' overhang
# [6] = system: RNA molecular beacon and Target RNA; conditions: ref Zheng et al., 2016; cited from earlier work
# Hfq102 (wild-type Hfq) [7] = biological target: T1, Hfq102 (wild-type Hfq); experiment: competition; vs pUC19 EMSA; good; Anisotropy: 10 mM Tris-HCl pH 7.5, 50 mM NaCl, 50 mM KCl, 30 C; CTD-FITC competition: 50 mM Tris-HCl pH 7.5, 30 C; pUC19 EMSA: 40 mM Tris-HCl pH 7.5, 0.14 mM EDTA, 35 mM NH4Cl, 3.7% glycerol, 25 C (competition legend 30 C); conditions: protein: recombinant; tags: untagged; chain copies: 6
# Hfq102 (wild-type Hfq) [8] = biological target: T1, Hfq102 (wild-type Hfq); experiment: competition; vs pUC19 EMSA; strong; Anisotropy: 10 mM Tris-HCl pH 7.5, 50 mM NaCl, 50 mM KCl, 30 C; CTD-FITC competition: 50 mM Tris-HCl pH 7.5, 30 C; pUC19 EMSA: 40 mM Tris-HCl pH 7.5, 0.14 mM EDTA, 35 mM NH4Cl, 3.7% glycerol, 25 C (competition legend 30 C); conditions: protein: recombinant; tags: untagged; chain copies: 6
# [9] = biological target: T2, Hfq65 (Hfq core, CTD deleted); experiment: fluorescence anisotropy; Hill 0.6; asterisked value, footnote not in material (possibly earlier work); Anisotropy: 10 mM Tris-HCl pH 7.5, 50 mM NaCl, 50 mM KCl, 30 C; CTD-FITC competition: 50 mM Tris-HCl pH 7.5, 30 C; pUC19 EMSA: 40 mM Tris-HCl pH 7.5, 0.14 mM EDTA, 35 mM NH4Cl, 3.7% glycerol, 25 C (competition legend 30 C); conditions: protein: recombinant; tags: untagged; chain copies: 6; label: 5' FAM
# Hfq102 (wild-type Hfq) [10] = biological target: T1, Hfq102 (wild-type Hfq); experiment: fluorescence anisotropy; Hill 0.7; asterisked value, footnote not in material (possibly earlier work); Anisotropy: 10 mM Tris-HCl pH 7.5, 50 mM NaCl, 50 mM KCl, 30 C; CTD-FITC competition: 50 mM Tris-HCl pH 7.5, 30 C; pUC19 EMSA: 40 mM Tris-HCl pH 7.5, 0.14 mM EDTA, 35 mM NH4Cl, 3.7% glycerol, 25 C (competition legend 30 C); conditions: protein: recombinant; tags: untagged; chain copies: 6; label: 5' FAM
# E. coli Hfq65-R16A = biological target: T3, E. coli Hfq65-R16A (E. coli, UniProt P0A6X3 1-65, R16A); experiment: fluorescence polarisation; 45 nM FITC-labelled peptide titrated with Hfq65 or variant (0–100 µM Hfq monomer), 50 mM Tris·HCl pH 7.5 (low salt), 30 °C, duplicate, single-site isotherm; Kd in Hfq monomer; conditions: both partners purified
# T3 construct: Hfq, E. coli, core residues 1-65, rim mutation R16A; Untagged; made by site-directed mutagenesis of pET21b-Hfq
# E. coli Hfq65-R19D = biological target: T4, E. coli Hfq65-R19D (E. coli, UniProt P0A6X3 1-65, R19D); experiment: as above; conditions: both partners purified
# T4 construct: Hfq, E. coli, core residues 1-65, rim mutation R19D; Untagged; made by site-directed mutagenesis of pET21b-Hfq
# E. coli Hfq65-K47A = biological target: T5, E. coli Hfq65-K47A (E. coli, UniProt P0A6X3 1-65, K47A); experiment: as above; conditions: both partners purified
# T5 construct: Hfq, E. coli, core residues 1-65, rim mutation K47A; Untagged; made by site-directed mutagenesis of pET21b-Hfq
# E. coli Hfq65-Q35A = biological target: T6, E. coli Hfq65-Q35A (E. coli, UniProt P0A6X3 1-65, Q35A); experiment: as above; conditions: both partners purified
# T6 construct: Hfq, E. coli, core residues 1-65, mutation Q35A; Untagged; made by site-directed mutagenesis of pET21b-Hfq
molecule,measurement,setting,value
B1,Kd,Hfq102 (wild-type Hfq) [1],117 ± 12 nM hexamer
TATCCGTATGACGTTCCGGACTATGCGGCTAAGGGGCAATCTTTAC (structured_DNA) [DNA1],binding result,[2],binds
B2,binding result,[3],binds
same,binding result,Hfq102 (wild-type Hfq) [4],binds
"CUUCCGUCCAUUUCGGACG (structured_RNA, 5' Thiol-C6) [minRCRB-Cy3]",Kd,Hfq102 (wild-type Hfq) [5],13.9 ± 1.5 nM hexamer
B3,in vitro RNA annealing activity,[6],inactive
GUGGUCAGUCGAGUGGUUUUUU (ssRNA) [Target-U6],binding result,Hfq102 (wild-type Hfq) [7],binds
GUGGUCAGUCGAGUGGAAAAAAAAAAAAAAAAAA (ssRNA) [Target-A18],binding result,Hfq102 (wild-type Hfq) [8],binds
CGAAUUUUUUAAGUGC (ssRNA) [D16-FAM],Kd,[9],20 ± 1.3 nM hexamer
same,Kd,Hfq102 (wild-type Hfq) [10],15.5 ± 0.9 nM hexamer
B4,binding result,E. coli Hfq65-R16A,binds
same,binding result,E. coli Hfq65-R19D,binds
same,binding result,E. coli Hfq65-K47A,binds
same,binding result,E. coli Hfq65-Q35A,binds
